The chains are these.
B1: Azoarcus group I ribozyme (parent)
chain: GUGCCUUGCGCCGGGAAACCACGCAAGGGAUGGUGUCAAAUUCGGCGAAACCUAAGCGCCCGCCCGGGCGUAUGGCAACGCCGAGCCAAGCUUCGGCGCCUGCGCCGAUGAAGGUGUAGAGACUAGACGGCACCCACCUAAGGCAAACGCUAUGGUGAAGGCAUAGUCCAGGGAGUGGCGAAAGUCACACAAACCGG

Variants of B1 are the subject of the data set. In words: reverse-splicing fitness (ratio to wild type); higher = more active; in vitro selection; Mg2+ level not given. The essentials: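 An in vitro group I ribozyme library with randomized positions was T7-transcribed and gel-purified. In triplicate, 10 pmol RNA in EPPS pH 7.5 was reacted with 50 pmoles of a 30-nt RNA substrate for 1 h at 37 °C across several added MgCl2 levels (1–48 mM), then stopped with EDTA. Products were reverse transcribed from a substrate-complementary primer, PCR-amplified and sequenced (HiSeq 4000). Fitness is a variant's read proportion after selection over that before, normalised to wild type.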
For C82A C150A C169G U176A, the reverse-splicing fitness worked out at 0.0198.

C82A C150A C169G U176C: the reverse-splicing fitness amounted to 0.0241.

Consider C82A C150A C169G U176G, for which the reverse-splicing fitness was determined as 0.0072.

As for C82G A111C A120C C150U C169U U176G, the reverse-splicing fitness is 0.00857.

Take C82G A111C A120C C150U C169U U176C: the reverse-splicing fitness is 0.0142.

On to C82G A111C A120C C150U C169U U176A, for which the reverse-splicing fitness turned out to be 0.0158.

C82G A111C A120C C150A C169U U176C: the reverse-splicing fitness came out at 0.0153.

Consider C82G A111C A120C C150A C169U U176G, for which the reverse-splicing fitness was 0.0085.

Regarding C82G A111C A120C C150A C169U U176A, the reverse-splicing fitness turned out to be 0.015.

C82G A111C A120C A145C C150G C169G: the reverse-splicing fitness worked out at 0.00653.

For the variant C82G A111C A120C A145C C150G C169U, the reverse-splicing fitness turned out to be 0.00944.

Take C82G A111C A120C A145C C150G C169A: the reverse-splicing fitness worked out at 0.00859.

In the case of C82G A111C A120C A145C C150G U176C, the reverse-splicing fitness was determined as 0.00825.

For the variant C82G A111C A120C A145C C150G U176A, the reverse-splicing fitness stood at 0.00528.

For C82G A111C A120C A145C C150G U176G, the reverse-splicing fitness amounted to 0.00325.

On to C82G A111C A120C A145G C150A C169A U176G, for which the reverse-splicing fitness turned out to be 0.00862.

As for C82G A111C A120C A145G C150A C169A U176A, the reverse-splicing fitness was determined as 0.0165.

Take C82G A111C A120C A145G C150A C169A U176C: the reverse-splicing fitness was 0.0188.

Take C82A C169G U176G: the reverse-splicing fitness stood at 0.00442.

With C82A C169G U176A, the reverse-splicing fitness came to 0.0139.

As to C82A C169G U176C, the reverse-splicing fitness was found to be 0.0234.

Take C82G A111C A120G A145C C150A C169A U176G: the reverse-splicing fitness turned out to be 0.00562.

Regarding C82G A111C A120G A145C C150A C169A U176A, the reverse-splicing fitness was determined as 0.0124.

Turning to C82G A111C A120G A145C C150A C169A U176C, the reverse-splicing fitness was 0.00779.

For the variant C82A C150G U176G, the reverse-splicing fitness was 0.0062.

As to C82A C150G U176A, the reverse-splicing fitness was 0.0245.

Consider C82A C150G U176C, for which the reverse-splicing fitness was 0.0393.

On to C82G A111C A120C A145U C150A U176A, for which the reverse-splicing fitness was found to be 0.0102.

On to C82G A111C A120C A145U C150A U176C, for which the reverse-splicing fitness is 0.0153.

As for C82G A111C A120C A145U C150A U176G, the reverse-splicing fitness amounted to 0.00601.

As to C82G A111C A120C A145G C150U C169U U176C, the reverse-splicing fitness stood at 0.0131.

C82G A111C A120C A145G C150U C169U U176A: the reverse-splicing fitness turned out to be 0.0156.

As to C82G A111C A120C A145G C150U C169U U176G, the reverse-splicing fitness is 0.00732.

Turning to C82G A111C A120C C169U U176A, the reverse-splicing fitness was 0.0183.

As for C82G A111C A120C C169U U176C, the reverse-splicing fitness was 0.0163.

On to C82G A111C A120C C169U U176G, for which the reverse-splicing fitness turned out to be 0.00655.

C82G A111C A120C A145C C150G C169A U176A: the reverse-splicing fitness worked out at 0.00832.

Regarding C82G A111C A120C A145C C150G C169A U176C, the reverse-splicing fitness stood at 0.00796.

As for C82G A111C A120C A145C C150G C169A U176G, the reverse-splicing fitness came to 0.00733.

On to C82G A111C A120C C169G U176A, for which the reverse-splicing fitness was 0.0161.

Regarding C82G A111C A120C C169G U176G, the reverse-splicing fitness was determined as 0.00714.

For the variant C82G A111C A120C C169G U176C, the reverse-splicing fitness was determined as 0.0206.

For C82G A111C A120C A145C C150U C169G U176C, the reverse-splicing fitness stood at 0.0168.

Regarding C82G A111C A120C A145C C150U C169G U176G, the reverse-splicing fitness stood at 0.00745.

For the variant C82G A111C A120C A145C C150U C169G U176A, the reverse-splicing fitness amounted to 0.0246.

On to C82G A111C A120C C150G C169G U176G, for which the reverse-splicing fitness worked out at 0.00663.

With C82G A111C A120C C150G C169G U176A, the reverse-splicing fitness came to 0.00891.

Regarding C82G A111C A120C C150G C169G U176C, the reverse-splicing fitness was found to be 0.00766.

For the variant C82G A111C A120G A145C C150A C169G, the reverse-splicing fitness turned out to be 0.00794.

For C82G A111C A120G A145C C150A C169U, the reverse-splicing fitness came to 0.00679.

As to C82G A111C A120G A145C C150A C169A, the reverse-splicing fitness stood at 0.00918.

In the case of C82G A111C A120C C150G U176G, the reverse-splicing fitness stood at 0.00427.

As to C82G A111C A120C C150G U176C, the reverse-splicing fitness is 0.00847.

On to C82G A111C A120C C150G U176A, for which the reverse-splicing fitness was 0.00574.

Turning to C82A C150A C169U U176C, the reverse-splicing fitness was found to be 0.0166.

As for C82A C150A C169U U176G, the reverse-splicing fitness amounted to 0.00672.

Regarding C82A C150A C169U U176A, the reverse-splicing fitness was found to be 0.0152.

C82G A111C A120C A145G C150U C169G U176G: the reverse-splicing fitness turned out to be 0.00699.

With C82G A111C A120C A145G C150U C169G U176A, the reverse-splicing fitness was determined as 0.0122.

With C82G A111C A120C A145G C150U C169G U176C, the reverse-splicing fitness was 0.0162.

Consider C82G A111C A120C A145C C150A C169G U176C, for which the reverse-splicing fitness came out at 0.0215.

As to C82G A111C A120C A145C C150A C169G U176G, the reverse-splicing fitness is 0.00758.

As for C82G A111C A120C A145C C150A C169G U176A, the reverse-splicing fitness amounted to 0.0271.

As to C82A C150G C169U U176C, the reverse-splicing fitness was found to be 0.0109.

Consider C82A C150G C169U U176A, for which the reverse-splicing fitness was 0.00724.

Take C82A C150G C169U U176G: the reverse-splicing fitness was 0.00641.

As for C82G A111C A120C A145C C150A U176A, the reverse-splicing fitness stood at 0.00989.

Consider C82G A111C A120C A145C C150A U176G, for which the reverse-splicing fitness was determined as 0.00623.

C82G A111C A120C A145C C150A U176C: the reverse-splicing fitness is 0.0115.

On to C82G A111C A120C A145G C150A C169G U176G, for which the reverse-splicing fitness was found to be 0.00768.

Consider C82G A111C A120C A145G C150A C169G U176C, for which the reverse-splicing fitness was found to be 0.0228.

On to C82G A111C A120C A145G C150A C169G U176A, for which the reverse-splicing fitness is 0.0156.

On to C82A C169U, for which the reverse-splicing fitness came to 0.0153.

Turning to C82A C169G, the reverse-splicing fitness came to 0.00961.

In the case of C82A C169A, the reverse-splicing fitness turned out to be 0.00967.

As for C82G A111C A120C A145C C150A C169G, the reverse-splicing fitness turned out to be 0.00859.

Take C82G A111C A120C A145C C150A C169U: the reverse-splicing fitness is 0.0113.

With C82G A111C A120C A145C C150A C169A, the reverse-splicing fitness came out at 0.00796.

C82G A111C A120C A145C C169A: the reverse-splicing fitness was 0.00657.

As for C82G A111C A120C A145C C169U, the reverse-splicing fitness is 0.0151.

On to C82G A111C A120C A145C C169G, for which the reverse-splicing fitness was 0.00843.

C82A C169A U176C: the reverse-splicing fitness came to 0.0166.

On to C82A C169A U176G, for which the reverse-splicing fitness is 0.00441.

With C82A C169A U176A, the reverse-splicing fitness amounted to 0.015.

Values taken from the RNAGym collection of RNA variant scans (doi:10.1093/molbev/msab373).
